PMC6677139

What was measured:
Experiment in all cases: purified protein
purified protein [1] = substrate: Nc1nc2nc[nH]c2c(=O)[nH]1; assay type: biochemical, Saccharomyces cerevisiae; conditions: 20 mM HEPES pH 7.5, 100 mM NaCl, 37 °C, zinc enzyme
purified protein [2] = substrate: Nc1nc2nc[nH]c2c(=O)[nH]1; assay type: biochemical, Escherichia coli; conditions: 20 mM HEPES pH 7.5, 100 mM NaCl, 37 °C
purified protein [3] = substrate: Nc1nc(N)nc(O)n1; assay type: biochemical, Escherichia coli; conditions: 20 mM HEPES pH 7.5, 100 mM NaCl, 37 °C, zinc enzyme
purified protein [4] = substrate: Nc1nc2nn[nH]c2c(=O)[nH]1; assay type: biochemical, Escherichia coli; conditions: 20 mM HEPES pH 7.5, 100 mM NaCl, 37 °C, zinc enzyme
purified protein [5] = substrate: Cn1c(N)nc2nc[nH]c2c1=O; assay type: biochemical, Escherichia coli; conditions: 20 mM HEPES pH 7.5, 100 mM NaCl, 37 °C, zinc enzyme

B1: Gud1 (Saccharomyces cerevisiae S288C) (protein)
chain: MTKSDLLFDKFNDKHGKFLVFFGTFVDTPKLGELRIREKTSVGVLNGIIRFVNRNSLDPVKDCLDHDSSLSPEDVTVVDIIGKDKTRNNSFYFPGFVDTHNHVSQYPNVGVFGNSTLLDWLEKYTFPIEAALANENIAREVYNKVISKTLSHGTTTVAYYNTIDLKSTKLLAQLSSLLGQRVLVGKVCMDTNGPEYYIEDTKTSFESTVKVVKYIRETICDPLVNPIVTPRFAPSCSRELMQQLSKLVKDENIHVQTHLSENKEEIQWVQDLFPECESYTDVYDKYGLLTEKTVLAHCIHLTDAEARVIKQRRCGISHCPISNSSLTSGECRVRWLLDQGIKVGLGTDVSAGHSCSILTTGRQAFAVSRHLAMRETDHAKLSVSECLFLATMGGAQVLRMDETLGTFDVGKQFDAQMIDTNAPGSNVDMFHWQLKEKDQMQEQEQEQGQDPYKNPPLLTNEDIIAKWFFNGDDRNTTKVWVAGQQVYQI
In the case of B1, the Km (purified protein [1]) is reported as 61 ± 8 µM.

B2: EcGuaD (Escherichia coli K-12) (protein)
chain: MMSGEHTLKAVRGSFIDVTRTIDNPEEIASALRFIEDGLLLIKQGKVEWFGEWENGKHQIPDTIRVRDYRGKLIVPGFVDTHIHYPQSEMVGAYGEQLLEWLNKHTFPTERRYEDLEYAREMSAFFIKQLLRNGTTTALVFGTVHPQSVDALFEAASHINMRMIAGKVMMDRNAPDYLLDTAESSYHQSKELIERWHKNGRLLYAITPRFAPTSSPEQMAMAQRLKEEYPDTWVHTHLCENKDEIAWVKSLYPDHDGYLDVYHQYGLTGKNCVFAHCVHLEEKEWDRLSETKSSIAFCPTSNLYLGSGLFNLKKAWQKKVKVGMGTDIGAGTTFNMLQTLNEAYKVLQLQGYRLSAYEAFYLATLGGAKSLGLDDLIGNFLPGKEADFVVMEPTATPLQQLRYDNSVSLVDKLFVMMTLGDDRSIYRTYVDGRLVYERN
With B2 the Km (purified protein [2]; zinc enzyme) was 210 ± 40 µM, the Km (purified protein [3]) was 1200 ± 200 µM and the Km (purified protein [4]) was 1000 ± 300 µM. The Km (purified protein [5]) was 930 ± 260 µM.

B3: EcGuaD (Escherichia coli K-12; W101H) (protein)
chain: MMSGEHTLKAVRGSFIDVTRTIDNPEEIASALRFIEDGLLLIKQGKVEWFGEWENGKHQIPDTIRVRDYRGKLIVPGFVDTHIHYPQSEMVGAYGEQLLEHLNKHTFPTERRYEDLEYAREMSAFFIKQLLRNGTTTALVFGTVHPQSVDALFEAASHINMRMIAGKVMMDRNAPDYLLDTAESSYHQSKELIERWHKNGRLLYAITPRFAPTSSPEQMAMAQRLKEEYPDTWVHTHLCENKDEIAWVKSLYPDHDGYLDVYHQYGLTGKNCVFAHCVHLEEKEWDRLSETKSSIAFCPTSNLYLGSGLFNLKKAWQKKVKVGMGTDIGAGTTFNMLQTLNEAYKVLQLQGYRLSAYEAFYLATLGGAKSLGLDDLIGNFLPGKEADFVVMEPTATPLQQLRYDNSVSLVDKLFVMMTLGDDRSIYRTYVDGRLVYERN
B3 showed a Km (purified protein [2]) of 80 ± 10 µM.

B4: EcGuaD (Escherichia coli K-12; A386S) (protein)
chain: MMSGEHTLKAVRGSFIDVTRTIDNPEEIASALRFIEDGLLLIKQGKVEWFGEWENGKHQIPDTIRVRDYRGKLIVPGFVDTHIHYPQSEMVGAYGEQLLEWLNKHTFPTERRYEDLEYAREMSAFFIKQLLRNGTTTALVFGTVHPQSVDALFEAASHINMRMIAGKVMMDRNAPDYLLDTAESSYHQSKELIERWHKNGRLLYAITPRFAPTSSPEQMAMAQRLKEEYPDTWVHTHLCENKDEIAWVKSLYPDHDGYLDVYHQYGLTGKNCVFAHCVHLEEKEWDRLSETKSSIAFCPTSNLYLGSGLFNLKKAWQKKVKVGMGTDIGAGTTFNMLQTLNEAYKVLQLQGYRLSAYEAFYLATLGGAKSLGLDDLIGNFLPGKESDFVVMEPTATPLQQLRYDNSVSLVDKLFVMMTLGDDRSIYRTYVDGRLVYERN
B4 gave a Km (purified protein [2]) of 140 ± 30 µM.

B5: EcGuaD (Escherichia coli K-12; F210A) (protein)
chain: MMSGEHTLKAVRGSFIDVTRTIDNPEEIASALRFIEDGLLLIKQGKVEWFGEWENGKHQIPDTIRVRDYRGKLIVPGFVDTHIHYPQSEMVGAYGEQLLEWLNKHTFPTERRYEDLEYAREMSAFFIKQLLRNGTTTALVFGTVHPQSVDALFEAASHINMRMIAGKVMMDRNAPDYLLDTAESSYHQSKELIERWHKNGRLLYAITPRAAPTSSPEQMAMAQRLKEEYPDTWVHTHLCENKDEIAWVKSLYPDHDGYLDVYHQYGLTGKNCVFAHCVHLEEKEWDRLSETKSSIAFCPTSNLYLGSGLFNLKKAWQKKVKVGMGTDIGAGTTFNMLQTLNEAYKVLQLQGYRLSAYEAFYLATLGGAKSLGLDDLIGNFLPGKEADFVVMEPTATPLQQLRYDNSVSLVDKLFVMMTLGDDRSIYRTYVDGRLVYERN
Protein B5 has a Km (purified protein [2]) of 210 ± 60 µM.
